Experimental data: US20260242478A1 (published 2026)

B1: Phage-318 (peptide)
peptide: MDWCPMFLWDECFN
notes: Clonal phage of the Peptide-9 library; also called the position column gives F at position 7)
B2: Phage-329 (peptide)
peptide: MDWCPRALWNVCFA
notes: Clonal phage of the Peptide-9 library; also called the position column gives N at position 14)
B3: Phage-330 (peptide)
peptide: MDWCPRFLWDVCFN
notes: as for B1
B4: Phage-219 (peptide)
peptide: NYWCPSSMWNRCLH
notes: tested as crude clonal phage supernatant
B5: Phage-220 (peptide)
peptide: FDFCPTTMWTYCQH
notes: as for B4
B6: Phage-221 (peptide)
peptide: TTWCPTSMWLHCFD
notes: as for B4
B7: Phage-222 (peptide)
peptide: MDWCPRDQWHNCFN
notes: as for B4

biological target: T1, anti-CD28 scFv (VH - linker 1 - VL) (biotinylated (site not stated)); assay: phage ELISA as above; wells pre-incubated with soluble CD28 (competitor)
T1 sequence (scFv, as listed by the source): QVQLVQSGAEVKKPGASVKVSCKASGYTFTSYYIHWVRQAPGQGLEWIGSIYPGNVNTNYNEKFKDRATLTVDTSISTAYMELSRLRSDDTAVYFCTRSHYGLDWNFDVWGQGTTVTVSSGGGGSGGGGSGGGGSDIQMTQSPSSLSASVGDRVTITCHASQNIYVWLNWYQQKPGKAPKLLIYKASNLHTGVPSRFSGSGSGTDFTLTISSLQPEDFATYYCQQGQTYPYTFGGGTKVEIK

Binder	CD28 scFv signal in presence of CD28
MDWCPRDLWNWCFN [Phage-336 clonal phage peptide MDWCPRDLWNWCFN]	0.39
MDWCPKPLWHVCFA [Phage-337 clonal phage peptide MDWCPKPLWHVCFA]	0.152
MDWCPRFLWNECFY [Phage-338 clonal phage peptide MDWCPRFLWNECFY]	0.287
MDWCPRTLWDQCFF [Phage-339 clonal phage peptide MDWCPRTLWDQCFF]	0.314
MSWCPIDLWSECFA [Phage-340 clonal phage peptide MSWCPIDLWSECFA]	0.148
MDWCPRHLWDECFN [Phage-341 clonal phage peptide MDWCPRHLWDECFN]	0.268
MDWCPRNLWHECFA [Phage-342 clonal phage peptide MDWCPRNLWHECFA]	0.175
MDWCPMNLWHECFA [Phage-351 clonal phage peptide MDWCPMNLWHECFA]	0.16
MDWCPRPLWHECFA [Phage-359 clonal phage peptide MDWCPRPLWHECFA]	0.138
MDWCPRDLWTQCFF [Phage-343 clonal phage peptide MDWCPRDLWTQCFF]	0.119
MDWCPRHLWVHCFS [Phage-344 clonal phage peptide MDWCPRHLWVHCFS]	0.173
MDFCPRFLWHECFN [Phage-345 clonal phage peptide MDFCPRFLWHECFN]	0.225
MDWCPRHLWHACFS [Phage-346 clonal phage peptide MDWCPRHLWHACFS]	0.167
MAWCPWYLWDECFN [Phage-348 clonal phage peptide MAWCPWYLWDECFN]	0.267
LDWCPRHLWALCFN [Phage-349 clonal phage peptide LDWCPRHLWALCFN]	0.24
MDWCPWFLWNECFN [Phage-350 clonal phage peptide MDWCPWFLWNECFN]	0.279
MDWCPIHLWYECFN [Phage-352 clonal phage peptide MDWCPIHLWYECFN]	0.203
IDWCPLHLWHECYH [Phage-353 clonal phage peptide IDWCPLHLWHECYH]	0.182
MDWCPRYLWLECFN [Phage-354 clonal phage peptide MDWCPRYLWLECFN]	0.368
MDWCPMYLWDECFF [Phage-356 clonal phage peptide MDWCPMYLWDECFF]	0.178
MDWCPRLLWHECFN [Phage-357 clonal phage peptide MDWCPRLLWHECFN]	0.109
MDWCPMFLWHECFS [Phage-360 clonal phage peptide … (as printed)]	0.193
MHWCPRHLWSECFN [Phage-361 clonal phage peptide MHWCPRHLWSECFN]	0.478

biological target: T2, Anti-CD28 scFv (VH - linker 1 - VL) (biotinylated (site not stated)); assay: phage ELISA as above; wells pre-incubated with soluble CD28 as competitor;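 note: crude clonal phage supernatants tested, with bound phage detected by HRP-conjugated anti-M13 antibody, and reference wells given blocking buffer without CD28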
T2 construct: Biotinylated anti-CD28 scFv captured on neutravidin coated plates in the panning ELISA
T2 sequence (scFv, as listed by the source): as above

Binder	CD28 scFv signal in presence of CD28
MDWCPRDLWDECFN (Clonal phage of the Peptide-9 library) [Phage-310]	0.248
MDWCPRDLWYQCFN (Clonal phage of the Peptide-9 library) [Phage-311]	0.609
MDWCPRSLWNYCFN (Clonal phage of the Peptide-9 library) [Phage-313]	0.209
MDWCPRSLWNYCFA (Clonal phage of the Peptide-9 library) [Phage-316]	0.198
MDWCPIHLWNECFN (Clonal phage of the Peptide-9 library) [Phage-314]	0.157
MDWCPTYLWHVCFS (Clonal phage of the Peptide-9 library) [Phage-315]	0.16
MDWCPRHLWHECFT (Clonal phage of the Peptide-9 library) [Phage-317]	0.32
B1	0.203
MSWCPRDLWHLCFF (Clonal phage of the Peptide-9 library) [Phage-319]	0.319
MDWCPTYLWNECFN (Clonal phage of the Peptide-9 library) [Phage-320]	0.606
MDWCPRDLWYVCFA (Clonal phage of the Peptide-9 library) [Phage-321]	0.138
MDWCPRHLWIECFN (Clonal phage of the Peptide-9 library) [Phage-322]	0.376
MDWCPTYLWNVCFA (Clonal phage of the Peptide-9 library) [Phage-323]	0.132
MDWCPRHLWYECFS (Clonal phage of the Peptide-9 library) [Phage-324]	0.163
MDWCPAYLWDECFA (Clonal phage of the Peptide-9 library) [Phage-325]	0.163
MFWCPITLWNECFN (Clonal phage of the Peptide-9 library) [Phage-326]	0.143
MHWCPRDLWHVCFN (Clonal phage of the Peptide-9 library) [Phage-327]	0.15
MDWCPRALWDHCFN (Clonal phage of the Peptide-9 library) [Phage-328]	0.293
B2	0.249
B3	0.309
MDWCPRHLWDECFY (Clonal phage of the Peptide-9 library) [Phage-331]	0.146
IDWCPRALWDACLA (Clonal phage of the Peptide-9 library) [Phage-332]	0.164
MDWCPTDLWHECFA (Clonal phage of the Peptide-9 library) [Phage-333]	0.154
MDWCPRYLWDECFS (Clonal phage of the Peptide-9 library) [Phage-334]	0.164
MDWCPRFLWDYCFA (Clonal phage of the Peptide-9 library) [Phage-335]	0.207

biological target: T3, anti-CD28 scFv (VH - linker 1 - VL) (biotinylated (site not stated)); assay: clonal phage ELISA; biotinylated anti-CD28 scFv on neutravidin plate, anti-M13-HRP detection;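 note: crude supernatants of phage clones were tested in wells pretreated with blocking buffer either alone or supplemented with soluble CD28 protein before phage addition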
T3 construct: Captured as biotinylated scFv on neutravidin coated plates in the clonal phage ELISA
T3 sequence (scFv, as listed by the source): as above

Binder	CD28 scFv signal
B4	0.158
B5	0.086
B6	0.074
B7	0.2

biological target: T2, Anti-CD28 scFv (VH - linker 1 - VL); assay: phage ELISA; biotinylated anti-CD28 scFv on neutravidin plate, clonal phage supernatant, anti-M13-HRP;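 note: before the phage were added, wells were pre-incubated with soluble CD28 protein in blocking buffer, or with blocking buffer alone, and were not washed in between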
Description: (§1) Clonal phage were harvested as crude supernatants and screened via standard enzyme linked immunosorbent assays (ELISAs). […] Prior to the addition of clonal phage, wells were incubated with blocking buffer and CD28 soluble protein or blocking buffer alone. Without washing or aspirating, clonal phage supernatants were then added to the wells and incubated for a short time. Wells were then washed followed by detection of bound phage using a horse radish peroxidase conjugated anti-M13 antibody.

Binder	CD28 scFv signal
MDWCPRDLWDECFN (Clonal phage of the Peptide-9 library) [Phage-310]	2.37
MDWCPRDLWYQCFN (Clonal phage of the Peptide-9 library) [Phage-311]	2.35
MDWCPRSLWNYCFN (Clonal phage of the Peptide-9 library) [Phage-313]	2.35
MDWCPRSLWNYCFA (Clonal phage of the Peptide-9 library) [Phage-316]	2.32
MDWCPIHLWNECFN (Clonal phage of the Peptide-9 library) [Phage-314]	2.35
MDWCPTYLWHVCFS (Clonal phage of the Peptide-9 library) [Phage-315]	2.32
MDWCPRHLWHECFT (Clonal phage of the Peptide-9 library) [Phage-317]	2.3
B1	2.29
MSWCPRDLWHLCFF (Clonal phage of the Peptide-9 library) [Phage-319]	2.27
MDWCPTYLWNECFN (Clonal phage of the Peptide-9 library) [Phage-320]	2.24
MDWCPRDLWYVCFA (Clonal phage of the Peptide-9 library) [Phage-321]	2.22
MDWCPRHLWIECFN (Clonal phage of the Peptide-9 library) [Phage-322]	2.21
MDWCPTYLWNVCFA (Clonal phage of the Peptide-9 library) [Phage-323]	2.21
MDWCPRHLWYECFS (Clonal phage of the Peptide-9 library) [Phage-324]	2.17
MDWCPAYLWDECFA (Clonal phage of the Peptide-9 library) [Phage-325]	2.17
MFWCPITLWNECFN (Clonal phage of the Peptide-9 library) [Phage-326]	2.15
MHWCPRDLWHVCFN (Clonal phage of the Peptide-9 library) [Phage-327]	2.15
MDWCPRALWDHCFN (Clonal phage of the Peptide-9 library) [Phage-328]	2.15
B2	2.14
B3	2.14
MDWCPRHLWDECFY (Clonal phage of the Peptide-9 library) [Phage-331]	2.13
IDWCPRALWDACLA (Clonal phage of the Peptide-9 library) [Phage-332]	2.1
MDWCPTDLWHECFA (Clonal phage of the Peptide-9 library) [Phage-333]	2.07
MDWCPRYLWDECFS (Clonal phage of the Peptide-9 library) [Phage-334]	2.06
MDWCPRFLWDYCFA (Clonal phage of the Peptide-9 library) [Phage-335]	2.03

biological target: T1, anti-CD28 scFv (VH - linker 1 - VL); assay: as above
Description: as §1

Binder	CD28 scFv signal
MDWCPRDLWNWCFN [Phage-336 clonal phage peptide MDWCPRDLWNWCFN]	2.03
MDWCPKPLWHVCFA [Phage-337 clonal phage peptide MDWCPKPLWHVCFA]	2.02
MDWCPRFLWNECFY [Phage-338 clonal phage peptide MDWCPRFLWNECFY]	2
MDWCPRTLWDQCFF [Phage-339 clonal phage peptide MDWCPRTLWDQCFF]	1.99
MSWCPIDLWSECFA [Phage-340 clonal phage peptide MSWCPIDLWSECFA]	1.99
MDWCPRHLWDECFN [Phage-341 clonal phage peptide MDWCPRHLWDECFN]	1.98
MDWCPRNLWHECFA [Phage-342 clonal phage peptide MDWCPRNLWHECFA]	1.97
MDWCPMNLWHECFA [Phage-351 clonal phage peptide MDWCPMNLWHECFA]	1.74
MDWCPRPLWHECFA [Phage-359 clonal phage peptide MDWCPRPLWHECFA]	1.44
MDWCPRDLWTQCFF [Phage-343 clonal phage peptide MDWCPRDLWTQCFF]	1.93
MDWCPRHLWVHCFS [Phage-344 clonal phage peptide MDWCPRHLWVHCFS]	1.91
MDFCPRFLWHECFN [Phage-345 clonal phage peptide MDFCPRFLWHECFN]	1.91
MDWCPRHLWHACFS [Phage-346 clonal phage peptide MDWCPRHLWHACFS]	1.83
MAWCPWYLWDECFN [Phage-348 clonal phage peptide MAWCPWYLWDECFN]	1.81
LDWCPRHLWALCFN [Phage-349 clonal phage peptide LDWCPRHLWALCFN]	1.78
MDWCPWFLWNECFN [Phage-350 clonal phage peptide MDWCPWFLWNECFN]	1.77
MDWCPIHLWYECFN [Phage-352 clonal phage peptide MDWCPIHLWYECFN]	1.73
IDWCPLHLWHECYH [Phage-353 clonal phage peptide IDWCPLHLWHECYH]	1.69
MDWCPRYLWLECFN [Phage-354 clonal phage peptide MDWCPRYLWLECFN]	1.69
MDWCPMYLWDECFF [Phage-356 clonal phage peptide MDWCPMYLWDECFF]	1.65
MDWCPRLLWHECFN [Phage-357 clonal phage peptide MDWCPRLLWHECFN]	1.6
MDWCPMFLWHECFS [Phage-360 clonal phage peptide … (as printed)]	1.44
MHWCPRHLWSECFN [Phage-361 clonal phage peptide MHWCPRHLWSECFN]	1.43

biological target: T3, anti-CD28 scFv (VH - linker 1 - VL); assay: clonal phage ELISA; captured anti-CD28 scFv pre-incubated with soluble CD28 (competitor), anti-M13-HRP detection;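 note: crude clonal phage supernatants added to wells pretreated with soluble CD28 in blocking buffer, compared against wells given blocking buffer only, then bound phage measured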
Description: as §1

Binder	CD28 scFv signal in presence of CD28
B4	0.088
B5	0.081
B6	0.072
B7	0.078
